From patent US20210275686A1, “BINDER/ACTIVE AGENT CONJUGATES DIRECTED AGAINST CXCR5, HAVING ENZYMATICALLY CLEAVABLE LINKERS AND IMPROVED ACTIVITY PROFILE” (BAYER AKTIENGESELLSCHAFT, priority 2018, published 2021)
Residue numbers refer to the chain shown, from its start. Values belong to the molecule of their own block, whether it stands above or below them.

What was measured:
[1] = tested on: Rec-1: human mantle cell lymphoma cells; assay: Cytotoxic activity, CTG assay, Rec-1; type: cell-based; settings: Rec1, metabolites
Experimental: (§1) The culturing of the cells is performed according to the standard method, as specified at the American Tissue Culture Collection (ATCC) or the Leibniz-Institut DSMZ-Deutsche Sammlung von Mikroorganismen and Zellkulturen GmbH (DSMZ) for the respective cell lines.
The cells were cultured using the standard method, with the growth media specified under C-1. To perform the test, the suspended cells were counted and seeded in a 96-well culture plate with a white background (Perkin Elmer, NO 10775584) (at 75 μL/well; the resulting cell numbers per well are: Rec-1: 3000 cells/well, HBL-1 and Oci-Ly-1: 6000 cells/well) and incubated in an incubator at 37° C. and 5% carbon dioxide. […] In a parallel plate, the cell vitality was determined at the beginning of the active agent treatment (day 0) with the Cell Titer Glow (CTG) Luminescent Cell Viability Assay (Promega #G7573 and #G7571). For this purpose, 100 μL of the substrate were added per cell batch; then the plates were covered with aluminum foil, shaken for 2 minutes at 180 rpm with the plate shaker, allowed to stand for 8 minutes on the laboratory bench and then measured with a luminometer (Victor X2, Perkin Elmer). The substrate detected the ATP content in the living cells, generating a luminescence signal whose height is directly proportional to the vitality of the cells. […]

[2] = tested on: Rec-1: human mantle cell lymphoma cells; assay: Cytotoxic activity, MTT assay, Rec-1; type: cell-based; settings: Rec1, metabolites, 96 h
Experimental: as §1
(§2) The culturing of the cells was performed according to the standard method with the growth media specified under C-1. For execution, the cells were separated with a solution of Accutase in PBS (Biochrom AG #L2143), pelleted, resuspended in culture medium, counted and seeded on a 96-well culture plate with a white background (Costar #3610) (NCI H292: 2500 cells/well; in 100 μL total volume). Then the cells were incubated in an incubator at 37° C. and 5% carbon dioxide. After 48 h a change of medium was performed. […] The cells in the suspension were counted and seeded into a 96-well culture plate with white background (Costar #3610) (#3610) (Rec-1: 3000 cells/well at a total volume of 100 μL). […] After 96 h the cell proliferation was detected using the MTT assay (ATCC, Manassas, Va., USA, Catalog No. 30-1010K). […] The color formed was detected at 570 nm (Infinite M1000 pro, Tecan). Based on the measured data the IC50 of the growth inhibition was calculated using the DRC (dose-response curve). […]

[3] = tested on: NCI-H292: human mucoepidermoid lung cancer cells; assay: Cytotoxic activity, MTT assay, NCI-H292; type: cell-based; settings: metabolites, 96 h
Experimental: as §1, §2

[4] = target: T1, human kinesin spindle protein KSP/Eg5 (Homo sapiens, UniProt P52732); assay: Inhibition of kinesin spindle protein KSP/Eg5 (ATPase, malachite green); type: biochemical; settings: 10 nM KSP motor domain, microtubules, 500 μM ATP, 2 h RT
T1 construct: The motor domain of the human kinesin spindle protein KSP/Eg5; purchased tebu-bio/Cytoskeleton Inc 027EG01-XL
T1 sequence (P52732 18-359 limits assumed): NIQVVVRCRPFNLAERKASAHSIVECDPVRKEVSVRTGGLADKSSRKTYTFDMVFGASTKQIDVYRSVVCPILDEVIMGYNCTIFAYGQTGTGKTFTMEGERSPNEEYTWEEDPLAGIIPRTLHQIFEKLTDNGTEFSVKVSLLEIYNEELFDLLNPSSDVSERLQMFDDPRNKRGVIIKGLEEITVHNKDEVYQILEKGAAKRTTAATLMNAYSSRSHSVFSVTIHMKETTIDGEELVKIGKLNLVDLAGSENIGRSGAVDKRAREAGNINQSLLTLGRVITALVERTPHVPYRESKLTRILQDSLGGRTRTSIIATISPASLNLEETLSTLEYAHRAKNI

legumain = target: T2, legumain (Homo sapiens, UniProt Q99538); assay: Legumain assay; type: biochemical; settings: recombinant human legumain (rhlegumain), 3 μM substrate, pH 5.0, read-out: half-life of legumain-mediated cleavage (converted)
T2 construct: purchased R&D Systems 2199-CY
T2 sequence (Q99538 26-323 limits assumed): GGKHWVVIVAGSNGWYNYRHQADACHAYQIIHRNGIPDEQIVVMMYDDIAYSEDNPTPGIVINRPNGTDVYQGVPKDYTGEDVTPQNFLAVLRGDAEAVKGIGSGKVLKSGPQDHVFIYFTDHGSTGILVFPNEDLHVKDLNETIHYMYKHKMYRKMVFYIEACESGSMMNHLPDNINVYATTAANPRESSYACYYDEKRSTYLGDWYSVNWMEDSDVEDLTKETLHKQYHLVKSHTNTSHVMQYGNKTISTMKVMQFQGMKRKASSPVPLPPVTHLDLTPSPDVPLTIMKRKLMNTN
Experimental: The legumain assay was performed with recombinant human enzyme. The rhlegumain enzyme solution (Catalog #2199-CY, R&D Systems) was diluted to the desired concentration in 50 mM Na acetate buffer/100 mM NaCl, pH4.0, and preincubated for 2 h at 37° C. The rhlegumain was then adjusted to a final concentration of […] in 50 mM MES buffer, 250 mM NaCl, pH 5.0. For each legumain-cleavable prodrug to be investigated, a reaction mixture was made up in a micro-reaction vessel (0.5 ml, Eppendorf). For this, the substrate solution was adjusted with 50 mM MES buffer, 250 mM NaCl, pH 5.0 to the desired concentration (2-fold concentration). For the kinetic measurement of the enzymatic reaction, first 250 μL of the legumain solution was taken and the enzymatic reaction was started by adding 250 μL of the substrate solution (final concentration, single concentration; 3 μM). Samples of 50 μL each were taken at various times. Immediately, 100 μL ice-cold methanol was added to the sample to stop the enzymatic reaction and then frozen at −20° C. The selected sampling times were after 0.5 h, 1 h, 3 h and 24 h. The samples were then examined by RP-HPLC analysis and by LC-MS. The determination of the toxophore released enabled the determination of the half-time t1/2 of the enzymatic reaction.

[5] = target: CXCR5 (CD185; SwissProt: P32302; NCBI reference sequence: NP_001707.1) (human) (UniProt P32302); assay: cell-based or functional assay
[6] = target: T3, CXCR5 (CD185; SwissProt: P32302; NCBI reference sequence: NP_001707.1) (human, UniProt P32302 1-372); assay: cell-based or functional assay
T3 sequence: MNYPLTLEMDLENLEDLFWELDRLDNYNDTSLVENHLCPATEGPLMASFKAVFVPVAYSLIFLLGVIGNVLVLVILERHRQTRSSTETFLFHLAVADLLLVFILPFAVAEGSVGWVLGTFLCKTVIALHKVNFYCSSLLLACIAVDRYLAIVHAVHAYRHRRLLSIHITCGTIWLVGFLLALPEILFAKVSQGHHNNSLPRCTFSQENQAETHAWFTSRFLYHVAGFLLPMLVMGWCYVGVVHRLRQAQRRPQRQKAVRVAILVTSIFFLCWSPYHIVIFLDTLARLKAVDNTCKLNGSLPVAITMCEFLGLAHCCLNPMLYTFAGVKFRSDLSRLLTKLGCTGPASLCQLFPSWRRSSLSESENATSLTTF

Molecule: CC(C)(C)[C@H](c1cc(-c2cc(F)ccc2F)cn1Cc1ccccc1)N(CC[C@H](N)C(=O)NCCC(=O)N[C@H](CCC(=O)O)C(=O)O)C(=O)CO [Example M1, N-{(2S)-2-Amino-4-[{(1R)-1-[1-benzyl-4-(2,5-difluorophenyl)-1H-pyrrol-2-yl]-2,2-dimethylpropyl}(glycoloyl)amino]butanoyl}-beta-alanyl-D-glutamic acid]
IC50 [1]: 309 nM | IC50 [2]: 387 nM

Molecule: CC(C)(C)[C@H](c1cc(-c2cc(F)ccc2F)cn1Cc1ccccc1)N(CCCN)C(=O)CO [Reference Example R1M, N-(3-Aminopropyl)-N-{(IR)-1-[1-benzyl-4-(2,5-difluorophenyl)-IH-pyrrol-2-yl]-2,2-dimethylpropyl}-2-hydroxyacetamide, reference compound]
IC50 [1]: 0.205 nM | IC50 [2]: 0.293 nM | IC50 [3]: 0.27 nM | IC50 [4]: 1.09 nM

Molecule: CNC(=O)[C@H](CCN(C(=O)CO)[C@@H](c1cc(-c2cc(F)ccc2F)cn1Cc1ccccc1)C(C)(C)C)NC(=O)[C@H](CC(N)=O)NC(=O)[C@H](C)N(C)C(=O)[C@H](C)NC(=O)Cc1ccncc1 [Model Compound A]
half-life at 3 µM (legumain): 30 min

Molecule: Isotype control (antibody)
Internalization Rec-1 [MFI] [5]: 2 MFI | Internalization SU-DHL-6 [MFI] [5]: 1 MFI

B1: 40C01 (antibody, human IgG1, kappa, V domains shown)
VH: EVQLLESGGGLVQPGGSLRLSCAASGFTFSRYVMVWVRQAPGKGLEWVSGISPSGGVTRYAASVKGRFTISRDNSKNTLYLQMNSLRAEDTAVYYCARIRKEMTTISYFFDYWGQGTLVTVSS
VL: DIQMTQSPSSLSASVGDRVTITCRASQGVDAYVAWYQQKPGKVPKLLIYSTSTLASGVPSRFSGSGSGTDFTLTISSLQPEDVATYYCQSHNAAVVTFGQGTRLEIKR
modifications: CypHer 5E fluorescent dye coupled to lysine residues (positions not stated)
Internalization Rec-1 [MFI] [6]: 49 MFI | Internalization SU-DHL-6 [MFI] [6]: 13 MFI

B2: TPP-14495 (antibody, human IgG1, lambda, V domains shown)
VH: EVQLLESGGGLVQPGGSLRLSCAASGFTFSNYWMSWVRQAPGKGLEWVSAISGSGGSTRYADSVKGRFTISRDNSKNTLYLQMNSLRAEDTAVYYCTTQRRELGATNWGQGTLVTVSS
VL: QSVLTQPPSASGTPGQRVTISCTGSSSNIGAGYVVHWYQQLPGTAPKLLIYSNNQRPSGVPDRFSGSKSGTSASLAISGLRSEDEADYYCQSYDSSLSGVVFGGGTKLTVLG
modifications: CypHer 5E fluorescent dye coupled to lysine residues (positions not stated)
Internalization Rec-1 [MFI] [6]: 84 MFI | Internalization SU-DHL-6 [MFI] [6]: 12 MFI

B5: TPP-10063 (antibody, human IgG1, lambda, V domains shown)
VH: B2 VH with R59Y, Q99L
VL: B2 VL
modifications: CypHer 5E fluorescent dye coupled to lysine residues (positions not stated)
Internalization Rec-1 [MFI] [6]: 65 MFI | Internalization SU-DHL-6 [MFI] [6]: 22 MFI

Next, values leading:

Internalization Rec-1 [MFI] [6]: 99 MFI | Internalization SU-DHL-6 [MFI] [6]: 24 MFI
B3: TPP-14511 (antibody, human IgG1, lambda, V domains shown)
VH: B2 VH with S57T, R59Y
VL: B2 VL
modifications: CypHer 5E fluorescent dye coupled to lysine residues (positions not stated)

Internalization Rec-1 [MFI] [6]: 135 MFI | Internalization SU-DHL-6 [MFI] [6]: 61 MFI
B4: TPP-14505 (antibody, human IgG1, lambda, V domains shown)
VH: B2 VH with Y32N, R59Y, T97N, T98V
VL: B2 VL
modifications: CypHer 5E fluorescent dye coupled to lysine residues (positions not stated)

Internalization Rec-1 [MFI] [6]: 134 MFI | Internalization SU-DHL-6 [MFI] [6]: 53 MFI
B6: TPP-14514 (antibody, human IgG1, lambda, V domains shown)
VH: B2 VH with Y32N, R59Y, T98V
VL: B2 VL
modifications: CypHer 5E fluorescent dye coupled to lysine residues (positions not stated)

Internalization Rec-1 [MFI] [6]: 122 MFI | Internalization SU-DHL-6 [MFI] [6]: 55 MFI
B7: TPP-14499 (antibody, human IgG1, lambda, V domains shown)
VH: B2 VH with M34G, R59Y, T98V, Q99L
VL: B2 VL
modifications: CypHer 5E fluorescent dye coupled to lysine residues (positions not stated)

Internalization Rec-1 [MFI] [6]: 129 MFI | Internalization SU-DHL-6 [MFI] [6]: 51 MFI
B8: TPP-14509 (antibody, human IgG1, lambda, V domains shown)
VH: B2 VH with R59Y, T98V
VL: B2 VL
modifications: CypHer 5E fluorescent dye coupled to lysine residues (positions not stated)
